Publication PMC3689434 (Biochemistry, 2013)
Read-outs that look alike come from different tables or passages of the source.

What was measured:
[1] = target: the molecule itself; assay: zonal velocity sedimentation in a glycerol gradient
[2] = target: the molecule itself; assay: as above; remark: listed apart in the source

B1: M. smegmatis PNPase-(1-591) lacking the KH and S1 domains (domain or fragment, Mycobacterium smegmatis, UniProt A0QVQ5 1-591, looked up)
chain: MSVVELEDGVYESTAVIDNGSFGTRTIRFETGRLAQQAAGSAVAYLDDETMLLSATTASKNPKDHFDFFPLTVDVEERMYAAGRIPGSFFRREGRPSTDAILTCRLIDRPLRPSFVDGLRNEIQVVVTVMSLDPKDLYDVLAINAASMSTQLAGLPFSGPVGGARIALIDGTWVAFPTVEQLERAVFDMVVAGRIVGDGDSADVAIMMVEAEATENVVELVAGGAQAPTEAVVAEGLEAAKPFIKALCAAQQELADRAAKPAGEYPVFPDYEADVYDAVASVATEALAEALTIAGKTERNDRTDEIKVEVLERLAEPYAGREKEIGAAFRSLTKKLVRQRILTDHFRIDGRGITDIRALSAEVAVIPRAHGSALFERGETQILGVTTLDMIKMAQQIDSLGPENTKRYMHHYNFPPYSTGETGRVGSPKRREIGHGALAERALVPVLPSIEEFPYAIRQVSEALGSNGSTSMGSVCASTLALLNAGVPLKAPVAGIAMGLVSDDVDVDGKVEKRYVALTDILGAEDAFGDMDFKVAGTKDFVTALQLDTKLDGIPSQVLAGALSQAKDARLTILDVMAEAIDRPDEMSPYA
- binding result [1]: binds

B2: full-length Mycobacterium smegmatis polynucleotide phosphorylase (PNPase) (enzyme, UniProt A0QVQ5 1-763, looked up)
chain: MSVVELEDGVYESTAVIDNGSFGTRTIRFETGRLAQQAAGSAVAYLDDETMLLSATTASKNPKDHFDFFPLTVDVEERMYAAGRIPGSFFRREGRPSTDAILTCRLIDRPLRPSFVDGLRNEIQVVVTVMSLDPKDLYDVLAINAASMSTQLAGLPFSGPVGGARIALIDGTWVAFPTVEQLERAVFDMVVAGRIVGDGDSADVAIMMVEAEATENVVELVAGGAQAPTEAVVAEGLEAAKPFIKALCAAQQELADRAAKPAGEYPVFPDYEADVYDAVASVATEALAEALTIAGKTERNDRTDEIKVEVLERLAEPYAGREKEIGAAFRSLTKKLVRQRILTDHFRIDGRGITDIRALSAEVAVIPRAHGSALFERGETQILGVTTLDMIKMAQQIDSLGPENTKRYMHHYNFPPYSTGETGRVGSPKRREIGHGALAERALVPVLPSIEEFPYAIRQVSEALGSNGSTSMGSVCASTLALLNAGVPLKAPVAGIAMGLVSDDVDVDGKVEKRYVALTDILGAEDAFGDMDFKVAGTKDFVTALQLDTKLDGIPSQVLAGALSQAKDARLTILDVMAEAIDRPDEMSPYAPRITTIKVPVDKIGEVIGPKGKMINSITEETGAQISIEDDGTVFVGAADGLSAQAAIDKINAIANPQLPKVGERFLGTVVKTTDFGAFVSLLPGRDGLVHISKLGKGKRIAKVEDVVKVGDKLRVEIADIDNRGKISLVLVAEESAESAESAGDKGAEKAEGAAADVTPAEA
- stoichiometry N [2]: 3

B3: M. smegmatis PNPase-(1-656) lacking the S1 domain (domain or fragment, Mycobacterium smegmatis, UniProt A0QVQ5 1-656, looked up)
chain: MSVVELEDGVYESTAVIDNGSFGTRTIRFETGRLAQQAAGSAVAYLDDETMLLSATTASKNPKDHFDFFPLTVDVEERMYAAGRIPGSFFRREGRPSTDAILTCRLIDRPLRPSFVDGLRNEIQVVVTVMSLDPKDLYDVLAINAASMSTQLAGLPFSGPVGGARIALIDGTWVAFPTVEQLERAVFDMVVAGRIVGDGDSADVAIMMVEAEATENVVELVAGGAQAPTEAVVAEGLEAAKPFIKALCAAQQELADRAAKPAGEYPVFPDYEADVYDAVASVATEALAEALTIAGKTERNDRTDEIKVEVLERLAEPYAGREKEIGAAFRSLTKKLVRQRILTDHFRIDGRGITDIRALSAEVAVIPRAHGSALFERGETQILGVTTLDMIKMAQQIDSLGPENTKRYMHHYNFPPYSTGETGRVGSPKRREIGHGALAERALVPVLPSIEEFPYAIRQVSEALGSNGSTSMGSVCASTLALLNAGVPLKAPVAGIAMGLVSDDVDVDGKVEKRYVALTDILGAEDAFGDMDFKVAGTKDFVTALQLDTKLDGIPSQVLAGALSQAKDARLTILDVMAEAIDRPDEMSPYAPRITTIKVPVDKIGEVIGPKGKMINSITEETGAQISIEDDGTVFVGAADGLSAQAAIDKINAIAN
- stoichiometry N [1]: 1 to 3
